This is an account of results in publication PMC8593141.

The assay addresses mouse Kv4.2 channel with GFP fused to the C-terminus (Kv4.2g) (mouse) (UniProt Q9Z0V2). The experiment in a line: co-IP; anti-GFP IP (Pierce Classic Magnetic IP/Co-IP kit, overnight 4°C, lysis buffer with 20 mM NEM and protease inhibitors) from lysates (0.5 mg protein) of HEK cells expressing Kv4.2g + HA-KChIP2a + HA-DPP10c, with or without co-transfected SUMO2 + Ubc9; blot for α-adaptin, stripped and re-probed for Kv4.2g; OD α-adaptin ÷ OD Kv4.2g.
Chain of UniProt Q9Z0V2 (Q9Z0V2 whole entry, the tested form may be a part): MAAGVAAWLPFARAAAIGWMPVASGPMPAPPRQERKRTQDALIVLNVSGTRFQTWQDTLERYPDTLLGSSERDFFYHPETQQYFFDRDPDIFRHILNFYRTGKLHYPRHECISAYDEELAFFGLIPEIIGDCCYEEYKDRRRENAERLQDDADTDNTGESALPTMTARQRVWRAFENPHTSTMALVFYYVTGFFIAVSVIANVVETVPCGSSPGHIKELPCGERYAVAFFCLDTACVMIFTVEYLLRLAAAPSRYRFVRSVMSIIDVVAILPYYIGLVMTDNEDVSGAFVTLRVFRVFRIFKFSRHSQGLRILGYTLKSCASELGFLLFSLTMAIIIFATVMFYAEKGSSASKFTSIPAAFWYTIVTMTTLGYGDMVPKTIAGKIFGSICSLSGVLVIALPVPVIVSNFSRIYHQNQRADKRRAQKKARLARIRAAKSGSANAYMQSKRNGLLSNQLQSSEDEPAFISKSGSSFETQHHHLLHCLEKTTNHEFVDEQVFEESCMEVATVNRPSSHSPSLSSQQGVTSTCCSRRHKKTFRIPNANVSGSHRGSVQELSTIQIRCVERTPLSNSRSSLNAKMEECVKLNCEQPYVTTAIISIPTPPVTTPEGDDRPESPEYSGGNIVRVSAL

Consider “α-adaptin subunit of adaptor protein 2 complex (AP2) (from UniProt O95782 1-977) (natural protein)”, for which the OD α-adaptin ÷ OD Kv4.2g in the anti-GFP IP (control, without SUMO2 + Ubc9) is 0.02 and the OD α-adaptin ÷ OD Kv4.2g in the anti-GFP IP (with co-expressed SUMO2 + Ubc9) was determined as 0.02.
